Assay: soluble fraction after stress (log2 fold change); higher = more stays soluble; pooled small domains, quantitative proteomics
Conditions: stress: 50 degC
Summary of the method: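 Pooled custom libraries of small protein domains were measured in a high-throughput format, with quantitative proteomics as the read-out. Each library was stressed at 50°C. Aggregation propensity is given as the base-two logarithm of the fold change in how much of each protein stays soluble after the stress. Higher values mean a larger share of the protein remains in solution.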

Sequence	soluble fraction (log2)
HMEAISSESIKKMIKSYVSGEDASKPLSDQQIADLLVKEGYMISRRTVAKYRDELGILSSSKRKR	-0.0456
HMEAKQMDAWIVSEAKRQGGKIEPAAAYELSRHTATDTSIASQEIAKLLMYVDFKRPVTREDVVELVSA	0.176
HMEALPELTDRQRQVYEFIEARIAEWGYPPTIREIGQHLGIKSTNGVADHLKALKRKGYLQQ	-0.0721
HMEALTPREREVLTLMGQGRSNAEIATLLSIAPRTAKVHVQNILSKLGATNRTEAVSLAVRQGLIS	0.301
HMEASVNAPMPGKIVSVSVSEGQQVNAGDVLLILEAMKMQNEITADAAGTVKAINVNAGQSVKNGDSLVIL	0.469
HMEAVGLTPRQGDVLALLLQGKPNKLIARDLNLSVETVKDHVAAVLRALGVSTRTQAVLAVSQMQQQAAQ	-0.248
HMEAVLTISPGMYSESVSAELVRLGIITNQKEFNSYLVNNGYAERIQTGDFKIKADMSYDEIARIITK	0.231
HMEAYDTMEDRTTLAPGFAKLDKRERYILHLRFFEGLTQSQIAERVGISQMHVSRLIRRSLEKLREEIGD	-0.671
HMEAYSAEAVRFRIKAMIESETVDDVMSDDKIVERLLADGVDIARRTVAKYREAMNIPSSVKRRRKLKGM	-1.53
HMEDDRMLVWFFRKSIQNGAQSEAEGRPIFEGKDYVHIQQPGERDYIEREAHQGDIGRWPRHWQAYQEGR	-0.329
HMEDEAVMQLPLSELKGLSPELLAILNGAGYEKLKDVLDLEREDIERIPGMTPERNEQLVAFLAELTE	0.0689
HMEDELFSVARAAFPEYASKIHMNYGSTVQSIARQSGVLTVSETKQLNENQQISYLEYSNGAVVLALA	-0.0402
HMEDELVMERFDINELVKSVVNANELRATQKNLSITYDILDTPLYVWADEYKVEEVVTNYLS	-0.143
HMEDIASESVKRVIRKIIDDEDKKSPLSDQAIVEILAKGEGIVIARRTVAKYREMMGILPSSKRKKH	-0.209
HMEDKIEESLEDNISELFAKTKDKYTLINDLYSKGYTVEELSRFSGLPSGEVRLVISLNSKN	0.0392
HMEDKPITKEQKQAMFALLREHFSGDEGNAVYTAVLEREGLAPGDKIMSSVYDRLIDGINEAIRQKLEAGA	0.00629
HMEDNLMIVVQVNGKKRSEIKVSIDASEDQIKQTALAEPNVQKFVEGHTIRKMILVPSKLLNIVV	-0.0375
HMEDPKLAQLTEQERKILDLIADGLTNRQIAEKMFLAEKTVKNYVSTILAKMGMSNRSEAAAYVARLEAG	0.0787
HMEDPPISQEQRQALFKMAHDHLGKDEGNKAILTLIQSHGLNSTTGMKVSTYNTIMEELVSTIQSLAA	-0.0686
HMEDPVAQEARAAFEVGRLLAAATGPVTLAAIRRAIDLPEERLEEILRRLEESGAVRRARDGWLPG	0.0888
HMEDVDLFTKAMAALPNRYRDILLLRYSHGYTVEEISDILSMKPENVKKTIQRARKKLGEILEAEG	-0.654
HMEEDPVIAAQRFLNIFRQLHIFTAAKRKEFDELLLKQPASVKGMFASLPGGSVLQEYVNNLEQNAG	-0.137
HMEEFIEHTVEKGEFLSAIIVAYNQHLKSKGFKSITTRDILNANPKLKPELIQVGQKIKIPRRKK	0.29
HMEEFLSFIADILEVDKNTLTLETSQDDVETWDSLMQLRLLGEIEAKYGVMIPMERISTIKKLNDFYQYIK	-0.513
HMEEIIPIRFLRHRVKRRETIFGLTQKYNITEDQLKRYNTRLYSEALERKMVLQIPVFPEVDED	-2.31

Sequence	soluble fraction (log2)
HMEEITLQEQINFIKDMLLNKEKFHLTDVITKKSKIYVVSLFLALLELIRLEEINFRQTQNFSDIIISRI	-0.138
HMEELGKVRPELDGNEIAKVLGITPGPVLGRAYTYLLSVRLDEGPIGPDVARERLLAWWAEQPES	-1.28
HMEELIEMNGVVMEILPDSRYRVTLDNGHKLIAYTGGKMKKNHIRILAGDKVTLELSPYDINNGRITFRHI	-1.28
HMEELTDSELNNLYRELFIARSNASDGVGIIEQKTIKGITYRLSNDNNYLIKELGNKEYIYKNGVWEEYT	0.0711
HMEENNIVIYITGAVKKEGIYEIKENSRISDAIEAAGGLLENANIKDINLAYIIEDGVKIYIPTNEEVNK	-0.192
HMEEPFRIEKKGDIYYISGKTVERLVAMTDLDNDSAVKRLQRTLKRMGVEDALREHGINPGDTVVIGNYEF	-0.0245
HMEEQIEVPVQINGKVRSKLTVAPETDEKQIEALALADPKVQQQLEGKRVLKVIVAQKRLVNIVA	-0.0336
HMEESTYQWNNFVRDFYASRVSAQYTNKLKVAAILWHHVKNTPQSKIYHDNLVSKYAEEINYFK	-2.51
HMEETEVPPVTGYEQSKASEVLTGKGLIPDIITVADEETAAGYVIRTDPASGEKVPSGTTVKVYVSSGP	0.159
HMEETGFYIKLQDQEVVIFHNDQVTPYEYTGIREEVLPESELEKLREGFFVEDEKELYSVLENLS	-0.142
HMEETLEELGKEYESAFTMYEKLWSYYKKQNYHQVNHKRSERYEILLGFVREYHPEKVEYYRELL	0.0169
HMEETLRALAKKISEKVLKSGRSTTLEPMNPYERRIIHSAVSEIEGVSSKSVGEEPYRKVVISSDNP	0.0364
HMEETLRELAVKISKQVIKTGRNSVLEPMNPYERRIIHAVISEIEGVSSKSVGEDPNRKVVIMSTNP	-0.126
HMEEYTVEFVKHKVKRKQTLYTISKLYNVSIDDIIKYNSQIEGFNLSRRMELNIPVKKTLIVKNE	-1.7
HMEFDTEFVLRQAMHAFMQYGYAKTSMQKLKEATHLHPGSIYAAYGNKKGLFLAATEQYQKDR	-0.0761
HMEFEYFQLRDHLYNLIMHPDKEKLKKDPDYLKLMSMAFSLLEDQNVGKDILEIAIKSIENFK	-0.573
HMEFLDLEIDVDATDGRLLAFLAAKGEVVSQTFNDTIITVRVRMPTGAMGQVHRSALAIRPA	-0.507
HMEFLDQAFLHETMRKVNQDATINLLKKVYEVPQKFIGRKVTVQYDPEDLSRVYVKDLSFPEPVTVYPV	-0.0595
HMEFNDLNDDEKAILHIMYNTGEKMTTALAARITNRGRNFASKLLKSLVKKEILEWHGTSKQDRNQYYTLA	-0.0326
HMEFQVKVIVSSLNIRSGPGTSYDTLGTVTKGDIFTIVETNSDSTWGKMQSGGWISIKDAYVKK	-0.688
HMEFTFTLPRGYIDDTGMIHREGTMRLANAADEILPLKDPRVQQNPGYLTIILLARVITKLGSL	0.277
HMEFTKSPLDEIAGVGPARKRALLAAFGTAKAVSQAALADLEKTPGVNAATARLVYAHFHEK	-0.143
HMEFTVFMNSAGGSKLQVVKTVKELTGLGLKEAKAIVDGSPGPVKEGLSKADAEAMLAKLQEAGADVEL	-0.0948
HMEFYYSDLVGMIVYDTGGNELGKVQAVLNHGAGDLLEIHGVNLKTSILIPFTKEAVPTVDIAARRIVTDP	0.0733
HMEGAEDMNRALALAFLRDNSRSTVAQLAEHLGSSKRSAERLVAQLKDEGVLERQGSPRAGLWIVHI	-0.0818

Sequence	soluble fraction (log2)
HMEGEVVESPLVGVAYLASGPDKPAFVQVGDSVSKGQTLLIIEAMKVMNEVPAPRDGIVTEILV	0.0266
HMEGFSAGQFVRASVDNTAFYLKRPKGDAVADKLLRRGASMKVISASGDYLKVELDSGEVGFVPPVMVE	0.05
HMEGIWAVFYDGKPINLKSSSLVANYPGPKYKKVSFSNPGHAENLAKKLNAQHNTDKFGVYLLKSGDKFS	-0.00158
HMEGMSIYVTVNGDMVHLTGKMSYVFVDVFEHIDFDLSKPQGSGIVTKLNGRDAQYMEEIRSGDMIEIYWR	-0.133
HMEGNLVEIFEDAFGRTMSTMDIEYINQFKRTGYDDEMIVSALREAVKSNALSFRYIERVLENWAHS	-0.202
HMEGTEVTTEPPGAQIEFDGKQFGPTPTRVPGLAAGKQFRITLAGYQEAKPKLKNNPKEGEPLSFTLTAI	0.406
HMEGTVQQDKFDAYKAKFEDAISNDLNTSMAITIIYDLLKDDMNDKTKLALINDFDKVLSLNLTTA	-0.255
HMEGVTVPDVTRISLDEAEELLTSYGLRFEVADRRANSAFPGNYVIDQAPSAEVIVKPNRKIYLTVNAA	-0.134
HMEHDTVLSKVFRRLREAHVPLSLDDIYQGLRKTVNNNSEIREKIVTLQERGLVAEILGPKGGKKYVAKPT	-0.105
HMEHIEVDTSHIAVGSKVKHKAFGLGEITDKGNTYVFVKFDGQAIPKKFQFPGAFTQGFLTK	0.144
HMEHPNNTELTQKLELGTELMQYGDYNYALKVFNNVIDSDPEWSEAWNKRATVYFLMSQFTDSLSDIDRV	0.32
HMEIDMQEGIKTIILMMKEHNITPSEAMKIYKSANGDIHYISKIYNHFKNKGADNFVALMIKMVKPGEFIE	-0.00191
HMEIEETKKNSRTKIPENFDYKLINGLSNEIRAKLELIRPIDLLQASRIDGMTPAALTLVHLWIKKYSG	-0.338
HMEIEIPEELQNKFAEIPELKTAFESLTPGRQRAYVLYFSQPKQSKTREARIEKYIPHILDGKGMN	0.111
HMEIESAHAQVLGVREIAASGATQHWIAFRFSDGHQRELLATPSQADVIFRGQQGVVHFAGDRLTGWIPE	-0.191
HMEIEYFDDEELDAYKGRKSDSYTDEEAAQFAEVLYTMRPSEVKDWTASLTLRGISMPDQIKDEAIMLME	-0.0466
HMEIGELITLYRKQAGLTIDELSEKANVPKGTLNKIIGGITKAPTLETMRSIAYALGKKLADFDN	-0.34
HMEIHQVEFGGKVISFVLERKPVKNVNLHIKPDMTVMVSANEKVPLDFILGFVKQKAAWILKNIQFFEDV	-1.25
HMEIKDQADAYGKMEPASAAAILSEMTNDLTLVAKILDSMQTSKSALILQNMKPTTAAQVTTKMTAMK	0.0219
HMEILTRQLTHYLHLLPPAQQEVVRGVYLQDQTLQEIADRVQIPLGTVKSRLRLGLSKLREQIEQEHE	-0.916
HMEIMELPEYVVRSGSGLDAFREKWDLWDQGLMYDLKDKRAVFPIFIDGVMIDAVGRALAGAEPKWLRYTG	-0.165
HMEINEDEIYEKIMIEIEQDNKVKSTWAKALSQSDGNKDKAESLYISMRFEELKYHQSYQKEELNLKDNQQ	0.0911
HMEIPRYRLIGADGGRMVDLGEGQGAIPPVDVKRGMIDMPGLGKGYYTADGKSAVITNADGSKTRVL	-0.034
HMEIRNLMPILSHFLNENDIKLSRESVNLVLDRASGNRENLNNELKKIHDYSFSNKIIDFETIKKLTNLG	-0.194
HMEISLAETLRSSLHMILGWYQNTGDKKLLELIRLHLQAYVNTGNSLNPEMEEIRAALETLGEGKEAFRP	-0.999
